B1: DVL3 (parent)
chain: FPELGYSYGGGSASSQHSEGSRSS
B2: PRKX (parent)
chain: KLLVVDRTRRLGNMKNGANDVKHH
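Note: lentivirally expressed fusions sorted by FACS into six bins by GFP to DsRed ratio, PSI derived from sequencing read proportions per bin multiplied by bin number.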

Variants of: B1
Experiment: protein stability index of a GFP-peptide fusion (GPS, HEK-293T) (PSI 1-6); higher = more stable
Conditions: c terminus: a fixed tail appended
Variant FYELGYSYGGGSASSQHSEGSRSS [P2Y] has a protein stability index of 3.1.
Variant FPPLGYSYGGGSASSQHSEGSRSS [E3P] has a protein stability index of 2.96.
In the case of FPWLGYSYGGGSASSQHSEGSRSS [E3W], the protein stability index is reported as 2.99.
With FPNLGYSYGGGSASSQHSEGSRSS [E3N] the protein stability index was 2.63.
For FPKLGYSYGGGSASSQHSEGSRSS [E3K], the protein stability index was 2.62.
FPQLGYSYGGGSASSQHSEGSRSS [E3Q] gave a protein stability index of 3.16.
Work on FPSLGYSYGGGSASSQHSEGSRSS [E3S] yielded a protein stability index of 1.59.
Variant FPTLGYSYGGGSASSQHSEGSRSS [E3T] has a protein stability index of 2.19.
In the case of FPALGYSYGGGSASSQHSEGSRSS [E3A], the protein stability index is reported as 3.43.
In the case of FPLLGYSYGGGSASSQHSEGSRSS [E3L], the protein stability index is reported as 3.87.
With FPVLGYSYGGGSASSQHSEGSRSS [E3V] the protein stability index was 3.75.
For FPHLGYSYGGGSASSQHSEGSRSS [E3H], the protein stability index was 2.58.
Work on FPRLGYSYGGGSASSQHSEGSRSS [E3R] yielded a protein stability index of 3.41.
Work on FPFLGYSYGGGSASSQHSEGSRSS [E3F] yielded a protein stability index of 2.93.
FPGLGYSYGGGSASSQHSEGSRSS [E3G] gave a protein stability index of 2.12.
Variant FPILGYSYGGGSASSQHSEGSRSS [E3I] has a protein stability index of 3.59.
Variant FPCLGYSYGGGSASSQHSEGSRSS [E3C] has a protein stability index of 2.76.
Variant FPYLGYSYGGGSASSQHSEGSRSS [E3Y] has a protein stability index of 2.61.
In the case of FPDLGYSYGGGSASSQHSEGSRSS [E3D], the protein stability index is reported as 2.67.
FPMLGYSYGGGSASSQHSEGSRSS [E3M] gave a protein stability index of 3.5.
FPELGYRYGGGSASSQHSEGSRSS [S7R] showed a protein stability index of 2.18.
With FPELGYQYGGGSASSQHSEGSRSS [S7Q] the protein stability index was 3.22.
FPELGYHYGGGSASSQHSEGSRSS [S7H] showed a protein stability index of 2.4.
With FPELGYWYGGGSASSQHSEGSRSS [S7W] the protein stability index was 1.74.
FPELGYGYGGGSASSQHSEGSRSS [S7G] showed a protein stability index of 2.5.
Variant FPELGYEYGGGSASSQHSEGSRSS [S7E] has a protein stability index of 3.68.
With FPELGYNYGGGSASSQHSEGSRSS [S7N] the protein stability index was 3.55.
Work on FPELGYKYGGGSASSQHSEGSRSS [S7K] yielded a protein stability index of 3.21.
Variant FPELGYPYGGGSASSQHSEGSRSS [S7P] has a protein stability index of 2.7.
FPELGYVYGGGSASSQHSEGSRSS [S7V] gave a protein stability index of 2.42.
In the case of FPELGYMYGGGSASSQHSEGSRSS [S7M], the protein stability index is reported as 2.65.
With FPELGYTYGGGSASSQHSEGSRSS [S7T] the protein stability index was 2.36.
FPELGYIYGGGSASSQHSEGSRSS [S7I] gave a protein stability index of 2.04.
For FPELGYFYGGGSASSQHSEGSRSS [S7F], the protein stability index was 2.72.
Work on FPELGYCYGGGSASSQHSEGSRSS [S7C] yielded a protein stability index of 1.84.
For FPELGYDYGGGSASSQHSEGSRSS [S7D], the protein stability index was 4.89.
In the case of FPELGYLYGGGSASSQHSEGSRSS [S7L], the protein stability index is reported as 2.26.
With FPELGYAYGGGSASSQHSEGSRSS [S7A] the protein stability index was 2.12.
Variant FPELGYYYGGGSASSQHSEGSRSS [S7Y] has a protein stability index of 2.19.

Variants of: B2
Experiment: as above
Conditions: c terminus: a fixed tail appended
KLLVVDRTRRLGNMKNGANDVKPH [H23P] showed a protein stability index of 3.37.
For KLLVVDRTRRLGNMKNGANDVKRH [H23R], the protein stability index was 2.44.
Variant KLLVVDRTRRLGNMKNGANDVKYH [H23Y] has a protein stability index of 2.35.
Variant KLLVVDRTRRLGNMKNGANDVKEH [H23E] has a protein stability index of 3.44.
Work on KLLVVDRTRRLGNMKNGANDVKMH [H23M] yielded a protein stability index of 2.33.
With KLLVVDRTRRLGNMKNGANDVKVH [H23V] the protein stability index was 2.96.
Work on KLLVVDRTRRLGNMKNGANDVKGH [H23G] yielded a protein stability index of 2.92.
KLLVVDRTRRLGNMKNGANDVKFH [H23F] showed a protein stability index of 2.53.
KLLVVDRTRRLGNMKNGANDVKAH [H23A] showed a protein stability index of 3.1.
In the case of KLLVVDRTRRLGNMKNGANDVKKH [H23K], the protein stability index is reported as 3.4.
KLLVVDRTRRLGNMKNGANDVKSH [H23S] gave a protein stability index of 2.73.
KLLVVDRTRRLGNMKNGANDVKWH [H23W] gave a protein stability index of 3.4.
With KLLVVDRTRRLGNMKNGANDVKIH [H23I] the protein stability index was 2.67.
KLLVVDRTRRLGNMKNGANDVKTH [H23T] showed a protein stability index of 3.18.
Variant KLLVVDRTRRLGNMKNGANDVKQH [H23Q] has a protein stability index of 2.69.
KLLVVDRTRRLGNMKNGANDVKDH [H23D] showed a protein stability index of 3.68.
Variant KLLVVDRTRRLGNMKNGANDVKCH [H23C] has a protein stability index of 2.94.
Variant KLLVVDRTRRLGNMKNGANDVKNH [H23N] has a protein stability index of 3.72.
KLLVVDRTRRLGNMKNGANDVKLH [H23L] gave a protein stability index of 2.85.
With KLLVVDRTRRLGNMKNGANDVKHL [H24L] the protein stability index was 2.11.
KLLVVDRTRRLGNMKNGANDVKHM [H24M] showed a protein stability index of 2.63.
In the case of KLLVVDRTRRLGNMKNGANDVKHF [H24F], the protein stability index is reported as 2.36.
In the case of KLLVVDRTRRLGNMKNGANDVKHA [H24A], the protein stability index is reported as 3.61.
For KLLVVDRTRRLGNMKNGANDVKHR [H24R], the protein stability index was 3.1.
For KLLVVDRTRRLGNMKNGANDVKHP [H24P], the protein stability index was 2.91.
With KLLVVDRTRRLGNMKNGANDVKHY [H24Y] the protein stability index was 2.46.
Work on KLLVVDRTRRLGNMKNGANDVKHI [H24I] yielded a protein stability index of 2.23.
With KLLVVDRTRRLGNMKNGANDVKHG [H24G] the protein stability index was 2.75.
With KLLVVDRTRRLGNMKNGANDVKHC [H24C] the protein stability index was 3.
With KLLVVDRTRRLGNMKNGANDVKHT [H24T] the protein stability index was 3.25.
For KLLVVDRTRRLGNMKNGANDVKHN [H24N], the protein stability index was 2.81.
KLLVVDRTRRLGNMKNGANDVKHS [H24S] showed a protein stability index of 3.48.
KLLVVDRTRRLGNMKNGANDVKHV [H24V] gave a protein stability index of 2.65.
KLLVVDRTRRLGNMKNGANDVKHQ [H24Q] showed a protein stability index of 3.01.
For KLLVVDRTRRLGNMKNGANDVKHE [H24E], the protein stability index was 3.96.
Variant KLLVVDRTRRLGNMKNGANDVKHK [H24K] has a protein stability index of 3.
In the case of KLLVVDRTRRLGNMKNGANDVKHW [H24W], the protein stability index is reported as 2.76.
With KLLVVDRTRRLGNMKNGANDVKHD [H24D] the protein stability index was 3.4.
With KLLVVDRTRRLGNMKNGANDVLHH [K22L] the protein stability index was 2.97.
KLLVVDRTRRLGNMKNGANDVWHH [K22W] showed a protein stability index of 2.13.
In the case of KLLVVDRTRRLGNMKNGANDVTHH [K22T], the protein stability index is reported as 2.99.
Work on KLLVVDRTRRLGNMKNGANDVNHH [K22N] yielded a protein stability index of 3.06.
Variant KLLVVDRTRRLGNMKNGANDVVHH [K22V] has a protein stability index of 2.88.
In the case of KLLVVDRTRRLGNMKNGANDVIHH [K22I], the protein stability index is reported as 2.32.
With KLLVVDRTRRLGNMKNGANDVYHH [K22Y] the protein stability index was 2.5.
KLLVVDRTRRLGNMKNGANDVSHH [K22S] showed a protein stability index of 3.52.
KLLVVDRTRRLGNMKNGANDVMHH [K22M] gave a protein stability index of 2.51.
KLLVVDRTRRLGNMKNGANDVEHH [K22E] showed a protein stability index of 3.58.
With KLLVVDRTRRLGNMKNGANDVRHH [K22R] the protein stability index was 2.97.
Variant KLLVVDRTRRLGNMKNGANDVGHH [K22G] has a protein stability index of 3.24.
KLLVVDRTRRLGNMKNGANDVPHH [K22P] gave a protein stability index of 3.02.
KLLVVDRTRRLGNMKNGANDVHHH [K22H] showed a protein stability index of 3.06.
With KLLVVDRTRRLGNMKNGANDVDHH [K22D] the protein stability index was 3.42.
Work on KLLVVDRTRRLGNMKNGANDVFHH [K22F] yielded a protein stability index of 2.04.
With KLLVVDRTRRLGNMKNGANDVQHH [K22Q] the protein stability index was 3.27.
